Test results taken from PMC10397344.

Tested on: MLH1 wt;PMS2 wt
Test: EMSA
Details: untreated; ATP; 20 mM HEPES pH 7.5, 40 ug/ml BSA, 1 mM DTT, 100 mM NaCl, 1.5 ul of 10 mM ATP added, 95 ng DNA, on ice 5 min; 4% native PAGE, 0.5xTBE pH 7.5

Substance: GT-DNA-substrate (G/T mismatch)
- binding signal (% (reference)): 100
